Measurements: publication PMC12532918

Target: T1, CXCR4-CFP / CXCR4-YFP (human), P61073
T1 chain: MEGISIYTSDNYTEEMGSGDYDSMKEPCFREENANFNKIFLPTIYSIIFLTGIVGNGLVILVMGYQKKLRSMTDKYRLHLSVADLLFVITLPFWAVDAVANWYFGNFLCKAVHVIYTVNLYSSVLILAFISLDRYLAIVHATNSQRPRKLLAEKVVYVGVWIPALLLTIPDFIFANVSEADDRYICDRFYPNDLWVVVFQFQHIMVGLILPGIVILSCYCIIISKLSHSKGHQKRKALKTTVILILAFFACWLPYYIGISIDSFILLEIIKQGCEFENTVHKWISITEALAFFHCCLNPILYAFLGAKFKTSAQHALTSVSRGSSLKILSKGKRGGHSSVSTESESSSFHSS
Experiment: FRET or BRET; FLIM (CFP donor lifetime) in live HEK-293T cells transfected with CXCR4-YFP/CXCR4-CFP or 5HTR2B-YFP/CXCR4-CFP (15 µg : 9 µg); CXCR4-CFP alone as reference; untreated or ChOx (25 U/mL, 2 h, 37 °C); without or with CXCL12 (100 nM, 30 min)
Conditions: remark: other sources report otherwise

B1: CXCR4-CFP / CXCR4-YFP, P61073 1-352 (receptor)
chain: MEGISIYTSDNYTEEMGSGDYDSMKEPCFREENANFNKIFLPTIYSIIFLTGIVGNGLVILVMGYQKKLRSMTDKYRLHLSVADLLFVITLPFWAVDAVANWYFGNFLCKAVHVIYTVNLYSSVLILAFISLDRYLAIVHATNSQRPRKLLAEKVVYVGVWIPALLLTIPDFIFANVSEADDRYICDRFYPNDLWVVVFQFQHIMVGLILPGIVILSCYCIIISKLSHSKGHQKRKALKTTVILILAFFACWLPYYIGISIDSFILLEIIKQGCEFENTVHKWISITEALAFFHCCLNPILYAFLGAKFKTSAQHALTSVSRGSSLKILSKGKRGGHSSVSTESESSSFHSS
- CFP donor lifetime (CFPτ), ChOx-treated cells (2.03 ns for CXCR4-CFP alone): 1.82 ns
- CFP donor lifetime (CFPτ), ChOx-treated cells with CXCL12: 1.75 ns
- CFP donor lifetime (CFPτ), untreated cells (2.03 ns for CXCR4-CFP alone): 1.7 ns
- CFP donor lifetime (CFPτ), untreated cells with CXCL12: 1.61 ns
